Data as given in IntAct's records for PubMed 19838187.

Tests used:
[1] = target: tnr6b_mouse Tnrc6b (UniProt Q8BKI2)
[2] = target: tnr6b_human TNRC6B (UniProt Q9UPQ9)
[3] = target: tnr6c_human TNRC6C (UniProt Q9HCJ0)
tnr6c_human TNRC6C, sequence (Q9HCJ0 whole entry): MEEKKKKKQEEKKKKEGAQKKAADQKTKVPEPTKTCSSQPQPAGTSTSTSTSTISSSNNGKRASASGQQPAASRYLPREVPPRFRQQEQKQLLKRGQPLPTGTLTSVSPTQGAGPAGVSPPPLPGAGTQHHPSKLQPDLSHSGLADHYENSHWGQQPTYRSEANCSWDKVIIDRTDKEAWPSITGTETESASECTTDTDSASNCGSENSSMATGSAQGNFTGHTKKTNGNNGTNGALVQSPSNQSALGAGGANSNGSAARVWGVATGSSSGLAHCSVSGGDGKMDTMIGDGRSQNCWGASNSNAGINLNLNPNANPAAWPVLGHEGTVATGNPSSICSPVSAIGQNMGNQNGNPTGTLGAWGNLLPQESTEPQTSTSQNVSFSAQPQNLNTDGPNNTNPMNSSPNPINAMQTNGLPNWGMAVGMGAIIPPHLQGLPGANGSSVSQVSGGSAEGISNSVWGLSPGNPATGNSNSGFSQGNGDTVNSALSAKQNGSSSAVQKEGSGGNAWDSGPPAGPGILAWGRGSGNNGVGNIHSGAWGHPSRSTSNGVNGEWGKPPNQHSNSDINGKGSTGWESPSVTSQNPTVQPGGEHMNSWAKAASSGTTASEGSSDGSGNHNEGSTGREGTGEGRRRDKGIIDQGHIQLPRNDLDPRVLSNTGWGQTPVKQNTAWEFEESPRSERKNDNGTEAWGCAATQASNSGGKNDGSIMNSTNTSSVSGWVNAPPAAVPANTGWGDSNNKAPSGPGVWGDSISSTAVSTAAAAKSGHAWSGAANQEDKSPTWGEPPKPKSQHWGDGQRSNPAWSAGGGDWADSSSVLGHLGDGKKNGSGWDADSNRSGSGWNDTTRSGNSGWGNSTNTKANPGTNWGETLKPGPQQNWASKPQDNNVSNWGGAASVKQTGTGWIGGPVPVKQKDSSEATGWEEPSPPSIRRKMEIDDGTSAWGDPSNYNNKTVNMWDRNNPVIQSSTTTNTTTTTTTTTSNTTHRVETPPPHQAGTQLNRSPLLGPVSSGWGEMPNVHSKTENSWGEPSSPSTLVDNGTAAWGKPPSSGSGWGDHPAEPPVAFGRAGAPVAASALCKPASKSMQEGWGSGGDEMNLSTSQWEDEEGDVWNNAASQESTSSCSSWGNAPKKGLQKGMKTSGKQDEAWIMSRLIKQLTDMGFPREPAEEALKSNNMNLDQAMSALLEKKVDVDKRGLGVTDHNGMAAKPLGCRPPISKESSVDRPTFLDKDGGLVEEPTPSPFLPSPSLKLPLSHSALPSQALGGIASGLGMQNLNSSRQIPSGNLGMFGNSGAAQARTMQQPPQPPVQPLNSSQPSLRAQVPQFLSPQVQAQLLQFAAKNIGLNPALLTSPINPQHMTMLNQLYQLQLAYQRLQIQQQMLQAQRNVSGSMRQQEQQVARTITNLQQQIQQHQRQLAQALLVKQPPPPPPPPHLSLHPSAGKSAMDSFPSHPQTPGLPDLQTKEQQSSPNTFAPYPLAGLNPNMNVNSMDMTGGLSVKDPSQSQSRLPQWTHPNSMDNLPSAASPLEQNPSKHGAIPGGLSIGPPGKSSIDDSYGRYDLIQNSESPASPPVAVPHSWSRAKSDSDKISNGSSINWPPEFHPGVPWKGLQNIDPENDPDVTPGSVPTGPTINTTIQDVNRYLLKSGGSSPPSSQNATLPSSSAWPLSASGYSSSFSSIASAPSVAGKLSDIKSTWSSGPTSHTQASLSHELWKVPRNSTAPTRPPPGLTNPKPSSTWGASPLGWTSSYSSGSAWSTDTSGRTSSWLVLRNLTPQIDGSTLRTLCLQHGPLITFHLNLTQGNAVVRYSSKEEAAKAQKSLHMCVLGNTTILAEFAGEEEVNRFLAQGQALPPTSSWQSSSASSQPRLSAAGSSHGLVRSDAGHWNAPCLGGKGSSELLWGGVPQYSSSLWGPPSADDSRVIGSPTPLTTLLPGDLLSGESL

Protein argonaute-2 (Homo sapiens), Q9UKV8 F470V;F505V, sequence (Q9UKV8 whole entry F470V/F505V): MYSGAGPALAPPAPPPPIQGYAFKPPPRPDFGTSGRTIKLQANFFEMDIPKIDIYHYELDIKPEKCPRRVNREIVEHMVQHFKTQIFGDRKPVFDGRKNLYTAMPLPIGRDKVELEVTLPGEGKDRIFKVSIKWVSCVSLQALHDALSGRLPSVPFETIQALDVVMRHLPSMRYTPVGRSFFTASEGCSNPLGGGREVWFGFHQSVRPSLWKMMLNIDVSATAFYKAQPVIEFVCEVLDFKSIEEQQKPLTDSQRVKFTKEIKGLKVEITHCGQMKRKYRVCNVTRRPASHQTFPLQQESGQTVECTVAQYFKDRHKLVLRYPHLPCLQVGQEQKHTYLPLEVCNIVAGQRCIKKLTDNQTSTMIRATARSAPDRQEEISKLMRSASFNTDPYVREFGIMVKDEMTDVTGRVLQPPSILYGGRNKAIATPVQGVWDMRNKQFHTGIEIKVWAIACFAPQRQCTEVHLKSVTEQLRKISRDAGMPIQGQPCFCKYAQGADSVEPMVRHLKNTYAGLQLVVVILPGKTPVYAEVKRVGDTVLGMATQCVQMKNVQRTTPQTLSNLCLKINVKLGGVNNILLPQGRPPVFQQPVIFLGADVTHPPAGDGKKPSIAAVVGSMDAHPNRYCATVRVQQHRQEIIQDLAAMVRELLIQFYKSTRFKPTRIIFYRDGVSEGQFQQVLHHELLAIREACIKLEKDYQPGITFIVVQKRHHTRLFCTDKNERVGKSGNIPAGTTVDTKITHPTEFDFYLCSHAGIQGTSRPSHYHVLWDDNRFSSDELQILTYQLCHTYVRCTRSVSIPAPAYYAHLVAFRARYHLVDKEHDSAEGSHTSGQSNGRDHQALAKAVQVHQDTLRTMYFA
tnr6b_human TNRC6B, sequence (Q9UPQ9 whole entry): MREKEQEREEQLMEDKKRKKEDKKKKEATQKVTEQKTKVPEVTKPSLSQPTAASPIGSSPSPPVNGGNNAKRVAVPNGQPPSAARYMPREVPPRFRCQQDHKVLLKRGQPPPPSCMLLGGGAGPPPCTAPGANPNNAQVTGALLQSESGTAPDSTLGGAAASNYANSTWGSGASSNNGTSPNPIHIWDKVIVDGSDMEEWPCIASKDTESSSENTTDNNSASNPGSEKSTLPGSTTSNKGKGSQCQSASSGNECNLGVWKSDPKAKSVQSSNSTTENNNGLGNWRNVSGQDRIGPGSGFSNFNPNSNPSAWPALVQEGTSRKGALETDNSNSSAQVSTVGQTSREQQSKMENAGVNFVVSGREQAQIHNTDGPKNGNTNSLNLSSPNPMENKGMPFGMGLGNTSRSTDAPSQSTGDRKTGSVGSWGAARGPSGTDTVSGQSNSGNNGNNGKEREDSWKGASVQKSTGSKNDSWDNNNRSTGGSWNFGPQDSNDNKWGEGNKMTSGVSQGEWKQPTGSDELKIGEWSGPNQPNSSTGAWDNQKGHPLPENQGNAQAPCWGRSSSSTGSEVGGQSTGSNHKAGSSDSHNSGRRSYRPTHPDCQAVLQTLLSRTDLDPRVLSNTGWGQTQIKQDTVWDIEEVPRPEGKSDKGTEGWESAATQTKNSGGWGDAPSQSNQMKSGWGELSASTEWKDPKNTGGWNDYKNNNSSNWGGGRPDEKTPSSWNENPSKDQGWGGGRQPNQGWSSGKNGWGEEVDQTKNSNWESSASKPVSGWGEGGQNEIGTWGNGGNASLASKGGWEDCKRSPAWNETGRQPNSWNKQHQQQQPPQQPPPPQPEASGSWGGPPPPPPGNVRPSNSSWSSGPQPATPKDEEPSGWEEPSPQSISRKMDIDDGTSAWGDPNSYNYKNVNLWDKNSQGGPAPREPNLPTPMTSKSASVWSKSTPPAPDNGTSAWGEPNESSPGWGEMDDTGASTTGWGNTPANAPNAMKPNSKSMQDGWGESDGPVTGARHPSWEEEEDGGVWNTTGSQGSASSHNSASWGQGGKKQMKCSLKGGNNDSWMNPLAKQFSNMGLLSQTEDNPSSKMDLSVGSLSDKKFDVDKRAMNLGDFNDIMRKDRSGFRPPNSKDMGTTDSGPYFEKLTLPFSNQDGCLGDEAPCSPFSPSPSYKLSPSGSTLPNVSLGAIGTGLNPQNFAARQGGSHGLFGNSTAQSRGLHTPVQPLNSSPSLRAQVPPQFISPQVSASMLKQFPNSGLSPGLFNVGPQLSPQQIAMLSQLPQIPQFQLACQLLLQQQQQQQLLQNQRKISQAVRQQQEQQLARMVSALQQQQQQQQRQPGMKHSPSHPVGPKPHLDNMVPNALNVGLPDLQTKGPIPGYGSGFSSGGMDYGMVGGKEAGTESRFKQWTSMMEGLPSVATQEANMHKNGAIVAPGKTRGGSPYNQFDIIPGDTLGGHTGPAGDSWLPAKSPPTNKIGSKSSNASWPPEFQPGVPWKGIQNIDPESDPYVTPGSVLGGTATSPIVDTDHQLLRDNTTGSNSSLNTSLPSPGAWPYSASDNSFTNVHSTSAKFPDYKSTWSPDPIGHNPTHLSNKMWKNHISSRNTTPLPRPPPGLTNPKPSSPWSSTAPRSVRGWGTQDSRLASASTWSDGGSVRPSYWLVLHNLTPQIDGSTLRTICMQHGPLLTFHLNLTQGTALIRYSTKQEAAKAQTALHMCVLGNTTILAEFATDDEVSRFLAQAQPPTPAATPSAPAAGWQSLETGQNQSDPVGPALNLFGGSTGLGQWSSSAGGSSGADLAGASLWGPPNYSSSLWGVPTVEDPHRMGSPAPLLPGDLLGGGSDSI

effect of a mutation on the interaction [1]: disrupting interaction | effect of a mutation on the interaction [2]: disrupting interaction | effect of a mutation on the interaction [3]: disrupting interaction
Substance: Protein argonaute-2 (Homo sapiens), Q9UKV8 F470V;F505V
